Target: protein A from Staphylococcus aureus (Staphylococcus aureus) (UniProt P38507)
Assay: fluorescence intensity of the solution left after immobilization (plate reader); solutions used for functionalization with FITC antibody analysed after the immobilization process on substrate with and without protein A; VICTOR3 plate reader; calibration curve to quantify the antibody that remained in solution

Substance “CD4 (VIT4)-FITC mouse anti-human antibody (Miltenyi Biotec)” has a percent of the starting antibody solution immobilised of under 60%.

Reference: publication PMC8538552
